This is an account of results in publication PMC8864165 (2022).

One test concerns the target E. coli DnaK (Escherichia coli, UniProt P0A6Y8 1-638). The test can be described thus: FP.
A further test has as its target S. aureus DnaK (Staphylococcus aureus, UniProt P99110 1-610). The test can be described thus: FP.

Square brackets hold non-standard residues; d marks the D form. Ends that are not written are not given here. Ac6c = NC1(C(=O)O)CCCCC1

B1: peptide 102 (peptide)
peptide: [Ac6c]RPFFPRPYLPLPRPPRPVR-NH2
modifications: N-terminus assumed
SMILES: CC(C)C[C@H](NC(=O)[C@H](Cc1ccc(O)cc1)NC(=O)[C@@H]1CCCN1C(=O)[C@H](CCCNC(=N)N)NC(=O)[C@@H]1CCCN1C(=O)[C@H](Cc1ccccc1)NC(=O)[C@H](Cc1ccccc1)NC(=O)[C@@H]1CCCN1C(=O)[C@H](CCCNC(=N)N)NC(=O)C1(N)CCCCC1)C(=O)N1CCC[C@H]1C(=O)N[C@@H](CC(C)C)C(=O)N1CCC[C@H]1C(=O)N[C@@H](CCCNC(=N)N)C(=O)N1CCC[C@H]1C(=O)N1CCC[C@H]1C(=O)N[C@@H](CCCNC(=N)N)C(=O)N1CCC[C@H]1C(=O)N[C@H](C(=O)N[C@@H](CCCNC(=N)N)C(N)=O)C(C)C
Take B1: the Ki with E. coli DnaK is 310 nM; with S. aureus DnaK it was 4.2 µM.

B2: ARV-1502 (peptide)
peptide: [Ac6c]RPDKPRPYLPRPRPPRPVR-NH2
modifications: N-terminus assumed
SMILES: CC(C)C[C@H](NC(=O)[C@H](Cc1ccc(O)cc1)NC(=O)[C@@H]1CCCN1C(=O)[C@H](CCCNC(=N)N)NC(=O)[C@@H]1CCCN1C(=O)[C@H](CCCCN)NC(=O)[C@H](CC(=O)O)NC(=O)[C@@H]1CCCN1C(=O)[C@H](CCCNC(=N)N)NC(=O)C1(N)CCCCC1)C(=O)N1CCC[C@H]1C(=O)N[C@@H](CCCNC(=N)N)C(=O)N1CCC[C@H]1C(=O)N[C@@H](CCCNC(=N)N)C(=O)N1CCC[C@H]1C(=O)N1CCC[C@H]1C(=O)N[C@@H](CCCNC(=N)N)C(=O)N1CCC[C@H]1C(=O)N[C@H](C(=O)N[C@@H](CCCNC(=N)N)C(N)=O)C(C)C
For the molecule B2, the inhibition constant Ki with E. coli DnaK came out at 400 nM; with S. aureus DnaK, 13.7 µM.

B3: peptide #2 (peptide)
chain: [Ac6c]RPKKPRPYLPRPRPPRPVR-NH2
modifications: N-terminus assumed
SMILES: CC(C)C[C@H](NC(=O)[C@H](Cc1ccc(O)cc1)NC(=O)[C@@H]1CCCN1C(=O)[C@H](CCCNC(=N)N)NC(=O)[C@@H]1CCCN1C(=O)[C@H](CCCCN)NC(=O)[C@H](CCCCN)NC(=O)[C@@H]1CCCN1C(=O)[C@H](CCCNC(=N)N)NC(=O)C1(N)CCCCC1)C(=O)N1CCC[C@H]1C(=O)N[C@@H](CCCNC(=N)N)C(=O)N1CCC[C@H]1C(=O)N[C@@H](CCCNC(=N)N)C(=O)N1CCC[C@H]1C(=O)N1CCC[C@H]1C(=O)N[C@@H](CCCNC(=N)N)C(=O)N1CCC[C@H]1C(=O)N[C@H](C(=O)N[C@@H](CCCNC(=N)N)C(N)=O)C(C)C
B3: affinity with E. coli DnaK was put at a Ki of 600 nM. This lies in the sub-micromolar range.

Broadly, the Ki is a measure of affinity in units of concentration, obtained from inhibition or displacement. Low readings indicate higher affinity, high ones lower affinity.
